54 variants from the RNAGym collection of RNA variant scans (doi:10.7554/elife.80360) can be followed below.

The labels stand for the following.
B1: Twister Ribozyme (parent)
chain: AACACUGCCAAUGCCGGUCCCAAGCCCGGAUAAAAGUGGAGGGGGCGG

Variants of B1 are the subject of this data set. The data set is described as follows: self-cleavage, relative activity (ratio to wild type); higher = more cleavage; co-transcriptional.
Regarding AACACUACCAAUGCCGGUCCCAAGCCCGGAUAAAAGUGGAGGGGGCGG [G7A], the self-cleavage stood at 0.615.

AACACUCCCAAUGCCGGUCCCAAGCCCGGAUAAAAGUGGAGGGGGCGG [G7C]: the self-cleavage worked out at 0.0658.

AACACUACCAAUGCCGGUCCCAAGCCCGGAUAAAAGUGGAGGGGGCAG [G7A G47A]: the self-cleavage was determined as 0.271.

As for AACACUACCAAUGCCGGUCCCAAGCCCGGAUAAGAGUGGAGGGGGCGG [G7A A34G], the self-cleavage turned out to be 0.111.

For AACACUACCAAUGCCGGUCCCAAGCCCGGAUAACAGUGGAGGGGGCGG [G7A A34C], the self-cleavage amounted to 0.118.

Regarding AACACUACCAAUGCCGCUCCCAAGCCCGGAUAAAAGUGGAGGGGGCGG [G7A G17C], the self-cleavage came to 0.0766.

In the case of AACACUCCCAAUGCCGGUCCAAAGCCCGGAUAAAAGUGGAGGGGGCGG [G7C C21A], the self-cleavage amounted to 0.0462.

For AACACUACCAAUGCCGGUCCCAAGCACGGAUAAAAGUGGAGGGGGCGG [G7A C26A], the self-cleavage is 0.0788.

Take AACACUCCCAAUGCCGGUCCCAAGCCCGGAUAGAAGUGGAGGGGGCGG [G7C A33G]: the self-cleavage was 0.064.

Regarding AACACUCCCAAUGCCGGUCCCAAGCCCGGAUAUAAGUGGAGGGGGCGG [G7C A33U], the self-cleavage was found to be 0.0354.

Regarding AACACUCCCAAUGCCGGUCCCAAGCCCGGAUACAAGUGGAGGGGGCGG [G7C A33C], the self-cleavage stood at 0.0837.

On to AACACUCCCAAUGCCGGUCCCUAGCCCGGAUAAAAGUGGAGGGGGCGG [G7C A22U], for which the self-cleavage stood at 0.0623.

AACACUCCCAAUGCCGGUCCCGAGCCCGGAUAAAAGUGGAGGGGGCGG [G7C A22G]: the self-cleavage was 0.0331.

As for AACACUACCAAUGCCGGUCCCAAGCCCGGAUAUAAGUGGAGGGGGCGG [G7A A33U], the self-cleavage came to 0.269.

AACACGGCCAAUGCCGGUCCCAAGCCCGGAUAAAAGUGGAGGGGGCCG [U6G G47C]: the self-cleavage amounted to 0.179.

For AACACGGCCAAUGCCGGUCCCAAGCCCGGAUAAAAGUGGAGGGGGCAG [U6G G47A], the self-cleavage is 0.179.

For the variant AACACUACCAAUGCCGGUCCCAGGCCCGGAUAAAAGUGGAGGGGGCGG [G7A A23G], the self-cleavage came out at 0.0819.

AACACUACCAAUGCCGGUCGCAAGCCCGGAUAAAAGUGGAGGGGGCGG [G7A C20G]: the self-cleavage is 0.0749.

Take AACACUACCAAUGCCGGUCACAAGCCCGGAUAAAAGUGGAGGGGGCGG [G7A C20A]: the self-cleavage was found to be 0.0724.

As for AACACUACCAAUGCCGGGCCCAAGCCCGGAUAAAAGUGGAGGGGGCGG [G7A U18G], the self-cleavage was 0.066.

Take AACACUACCAAUGCCGGCCCCAAGCCCGGAUAAAAGUGGAGGGGGCGG [G7A U18C]: the self-cleavage stood at 0.0816.

Consider AACACUACCAAUGCCGGACCCAAGCCCGGAUAAAAGUGGAGGGGGCGG [G7A U18A], for which the self-cleavage was determined as 0.0724.

In the case of AACACGGCCAAUGCCGGUCCCAAGCCCGGAUAAAAGUGGAGGGGACGG [U6G G45A], the self-cleavage stood at 0.141.

In the case of AACACUACCAAAGCCGGUCCCAAGCCCGGAUAAAAGUGGAGGGGGCGG [G7A U12A], the self-cleavage was 0.441.

For AACACUACGAAUGCCGGUCCCAAGCCCGGAUAAAAGUGGAGGGGGCGG [G7A C9G], the self-cleavage is 0.0915.

Turning to AACACUACAAAUGCCGGUCCCAAGCCCGGAUAAAAGUGGAGGGGGCGG [G7A C9A], the self-cleavage was determined as 0.0651.

As to AACACUACCAAUGCCGGUCCCAAACCCGGAUAAAAGUGGAGGGGGCGG [G7A G24A], the self-cleavage was 0.0655.

As to AACACUACCAAUGCCGGUCCCAACCCCGGAUAAAAGUGGAGGGGGCGG [G7A G24C], the self-cleavage was 0.0973.

Regarding AACACUCCCAAUGCCGGUCCCAAGCCCGGAUUAAAGUGGAGGGGGCGG [G7C A32U], the self-cleavage stood at 0.0629.

For AACACGGCCAAUGCCGGUCCCAAGCCCGGAUAAAAGUGGAGGCGGCGG [U6G G43C], the self-cleavage turned out to be 0.13.

Turning to AACACGGCCAAUGCCGGUCCCAAGCCCGGAUAAAAGUGGAGGAGGCGG [U6G G43A], the self-cleavage stood at 0.144.

On to AACACUACCAAUGCCGGUCCCAAGCCCGGAUAAAAGUUGAGGGGGCGG [G7A G38U], for which the self-cleavage amounted to 0.168.

Consider AACACUACCAAUGCCGGUCCCAAGCCCGGAUAAAAGUGGAGAGGGCGG [G7A G42A], for which the self-cleavage worked out at 0.176.

Consider AACACUACCAAUGCCGGUCCCAAGCCCGGAUAAAAGUGGAGCGGGCGG [G7A G42C], for which the self-cleavage worked out at 0.258.

In the case of AACACUACCAGUGCCGGUCCCAAGCCCGGAUAAAAGUGGAGGGGGCGG [G7A A11G], the self-cleavage stood at 0.48.

With AACACUACCAUUGCCGGUCCCAAGCCCGGAUAAAAGUGGAGGGGGCGG [G7A A11U], the self-cleavage came to 0.573.

As to AACACGGCCAAUGCCGGUCCCAAGCCCGGAUAAAAGUGAAGGGGGCGG [U6G G39A], the self-cleavage turned out to be 0.12.

With AACACUACCAAUUCCGGUCCCAAGCCCGGAUAAAAGUGGAGGGGGCGG [G7A G13U], the self-cleavage stood at 0.0584.

As to AACACUACCAAUACCGGUCCCAAGCCCGGAUAAAAGUGGAGGGGGCGG [G7A G13A], the self-cleavage was found to be 0.0834.

With AACACUACCAAUCCCGGUCCCAAGCCCGGAUAAAAGUGGAGGGGGCGG [G7A G13C], the self-cleavage came to 0.0492.

As to AACACUACCAAUGCCGGUUCCAAGCCCGGAUAAAAGUGGAGGGGGCGG [G7A C19U], the self-cleavage was 0.122.

Regarding AACACUACCAAUGCCGGUGCCAAGCCCGGAUAAAAGUGGAGGGGGCGG [G7A C19G], the self-cleavage stood at 0.0847.

In the case of AACACUACCAAUGCCGGUCCGAAGCCCGGAUAAAAGUGGAGGGGGCGG [G7A C21G], the self-cleavage came to 0.0478.

Take AACACUACCAAUGCCGGUCCCAAGCCCGGAUAAAAGUGGAGGGGCCGG [G7A G45C]: the self-cleavage worked out at 0.139.

Take AACACUACCAAUGCCGGUCCCAAGCCCGGAUAAAAGUGGAGGGGACGG [G7A G45A]: the self-cleavage worked out at 0.397.

As to AACACUAUCAAUGCCGGUCCCAAGCCCGGAUAAAAGUGGAGGGGGCGG [G7A C8U], the self-cleavage is 0.0616.

AACACUAGCAAUGCCGGUCCCAAGCCCGGAUAAAAGUGGAGGGGGCGG [G7A C8G]: the self-cleavage turned out to be 0.153.

In the case of AACACUAACAAUGCCGGUCCCAAGCCCGGAUAAAAGUGGAGGGGGCGG [G7A C8A], the self-cleavage came out at 0.0866.

As for AACACUCCCAAUGACGGUCCCAAGCCCGGAUAAAAGUGGAGGGGGCGG [G7C C14A], the self-cleavage was 0.0617.

For the variant AACACUCCCAAUGGCGGUCCCAAGCCCGGAUAAAAGUGGAGGGGGCGG [G7C C14G], the self-cleavage worked out at 0.0351.

On to AACACGGCCAAUGCCGGUCCCAAGCCCGGAUAAAAGCGGAGGGGGCGG [U6G U37C], for which the self-cleavage turned out to be 0.159.

As to AACACGGCCAAUGCCGGUCCCAAGCCCGGAUAAAAGAGGAGGGGGCGG [U6G U37A], the self-cleavage amounted to 0.112.

For the variant AACACGGCCAAUGCCGGUCCCAAGCCCGGAUAAAAGGGGAGGGGGCGG [U6G U37G], the self-cleavage is 0.196.

Turning to AACACUACCAAUGACGGUCCCAAGCCCGGAUAAAAGUGGAGGGGGCGG [G7A C14A], the self-cleavage amounted to 0.371.
